Results published in paper PMC5668318.

Molecular target: 3XFLAG-Kenny LIR motif mutant (F7A/L10A) (Drosophila) (UniProt Q9GYV5)
Assay: co-IP; anti-FLAG M2-agarose immunoprecipitation from lysates of transfected S2R+ cells, 4 °C overnight, elution with 3XFLAG peptide, blot for GFP

UniProt Q9GYV5, sequence (Q9GYV5 whole entry F7A/L10A): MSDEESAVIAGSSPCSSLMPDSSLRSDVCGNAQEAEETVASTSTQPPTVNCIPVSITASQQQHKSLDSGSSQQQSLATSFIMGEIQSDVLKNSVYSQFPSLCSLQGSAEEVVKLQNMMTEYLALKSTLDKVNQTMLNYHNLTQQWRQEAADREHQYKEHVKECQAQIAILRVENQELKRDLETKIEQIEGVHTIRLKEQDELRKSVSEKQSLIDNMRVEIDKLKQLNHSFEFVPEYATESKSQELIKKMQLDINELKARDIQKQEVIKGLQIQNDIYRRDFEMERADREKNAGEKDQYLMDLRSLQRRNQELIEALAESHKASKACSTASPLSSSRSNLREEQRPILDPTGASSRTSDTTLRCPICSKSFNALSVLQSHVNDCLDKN

eGFP-Atg8a (from UniProt Q9W2S2 1-121) (natural protein)
percent decrease in the interaction against wild-type 3XFLAG-Kenny: 62%
